Like-named read-outs stand apart in the source and are kept apart here.
Key:
[1] = target: T1, Apn2Cat(D222N/E59Q) (Saccharomyces cerevisiae, UniProt P38207 1-407, E59Q;D222N); test: X-ray crystallography
T1 sequence: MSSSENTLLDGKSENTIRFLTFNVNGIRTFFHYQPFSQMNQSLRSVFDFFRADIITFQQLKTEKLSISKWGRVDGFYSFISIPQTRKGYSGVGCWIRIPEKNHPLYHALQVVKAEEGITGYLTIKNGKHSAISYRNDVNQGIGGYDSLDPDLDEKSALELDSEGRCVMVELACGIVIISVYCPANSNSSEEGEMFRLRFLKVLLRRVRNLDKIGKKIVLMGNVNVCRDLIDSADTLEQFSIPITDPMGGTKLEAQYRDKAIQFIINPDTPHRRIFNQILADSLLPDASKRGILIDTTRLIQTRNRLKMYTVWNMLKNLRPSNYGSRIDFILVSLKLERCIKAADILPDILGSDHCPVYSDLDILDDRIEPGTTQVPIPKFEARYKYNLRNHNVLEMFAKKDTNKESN

[2] = target: T1, Apn2Cat(D222N/E59Q); test: X-ray crystallography; remark: listed apart in the source
[3] = target: the molecule itself; test: crystal structure

B1: duplex 1 (strand A self-annealed) (dsDNA)
DNA 1: TCCGAAATTTCGG
DNA 2: TCCGAAATTTCGG
modifications: five phosphorothioate bonds at the 3' end of each strand (TCCGAAAT*T*T*C*G*G)
binding result [1]: binds

B2: duplex 2 (strand A + strand B) (dsDNA)
DNA 1: TCCGAAATTTCGG
DNA 2: CCGAAATTTCGGA
modifications: five phosphorothioate bonds at the 3' end of each strand (A TCCGAAAT*T*T*C*G*G; B CCGAAATT*T*C*G*G*A)
binding result [2]: binds

B3: Recombinant S. cerevisiae Apn2^Cat (residues 1–407) (domain or fragment, UniProt P38207 1-407, looked up)
chain: MSSSENTLLDGKSENTIRFLTFNVNGIRTFFHYQPFSQMNQSLRSVFDFFRADIITFQELKTEKLSISKWGRVDGFYSFISIPQTRKGYSGVGCWIRIPEKNHPLYHALQVVKAEEGITGYLTIKNGKHSAISYRNDVNQGIGGYDSLDPDLDEKSALELDSEGRCVMVELACGIVIISVYCPANSNSSEEGEMFRLRFLKVLLRRVRNLDKIGKKIVLMGDVNVCRDLIDSADTLEQFSIPITDPMGGTKLEAQYRDKAIQFIINPDTPHRRIFNQILADSLLPDASKRGILIDTTRLIQTRNRLKMYTVWNMLKNLRPSNYGSRIDFILVSLKLERCIKAADILPDILGSDHCPVYSDLDILDDRIEPGTTQVPIPKFEARYKYNLRNHNVLEMFAKKDTNKESN
stoichiometry N [3]: 2

— PMC9732815 (Cell reports, 2022)
